In publication PMC8049983 one finds FRET ratio data, which are given here for one substance.

The target of this assay is V3A3E3 PA conjugated to carboxytetramethylrhodamine. In words: FRET or BRET.

Turning to “V3A3E3 PA conjugated to fluorescein isothiocyanate (peptide)”, the FRET ratio lay within 0.6 to 0.7.
